The text below walks through data of publication PMC3863616 (Journal of thrombosis and haemostasis : JTH, 2009).

Assay [1] concerns the target VWF (plastic-immobilized) (Homo sapiens) (UniProt P04275). Particulars: cited from earlier work.
Assay [2] has as its target VWF (antibody-immobilized) (Homo sapiens) (UniProt P04275). Particulars: cited from earlier work.
The target in assay [3] is Purified recombinant von Willebrand factor (UniProt P04275). As to the kind of experiment: co-IP + ELISA. Background: In an ELISA, binding on a coated surface is turned into a signal by an enzyme label.
The target of assay [4] is Endogenous von Willebrand factor of normal human plasma (human (endogenous in normal human …, UniProt P04275 764-2813)). The experiment in a line: co-IP + ELISA.
Assay [5] concerns the target T1, Purified recombinant von Willebrand factor (UniProt P04275 764-2813). The experiment in a line: co-IP + ELISA.
Assay [6] concerns the target T1, Purified recombinant von Willebrand …. As to the kind of experiment: co-IP + ELISA. This is another data set of the same source.

Read-outs that look alike come from different tables or passages of the source.

One may read the Kd as a measure of binding affinity in units of concentration. In the case of ADAMTS13 (from UniProt Q76LX8), the Kd in assay [1] is 14 nM; in assay [2], 90 nM.
As for “Human recombinant ADAMTS13 truncated after the eighth TSR (domain or fragment)”, the Kd in assay [3] was determined as 100 nM.

B1: Endogenous ADAMTS13 of normal human plasma (enzyme, UniProt Q76LX8 75-1427, looked up)
chain: AAGGILHLELLVAVGPDVFQAHQEDTERYVLTNLNIGAELLRDPSLGAQFRVHLVKMVILTEPEGAPNITANLTSSLLSVCGWSQTINPEDDTDPGHADLVLYITRFDLELPDGNRQVRGVTQLGGACSPTWSCLITEDTGFDLGVTIAHEIGHSFGLEHDGAPGSGCGPSGHVMASDGAAPRAGLAWSPCSRRQLLSLLSAGRARCVWDPPRPQPGSAGHPPDAQPGLYYSANEQCRVAFGPKAVACTFAREHLDMCQALSCHTDPLDQSSCSRLLVPLLDGTECGVEKWCSKGRCRSLVELTPIAAVHGRWSSWGPRSPCSRSCGGGVVTRRRQCNNPRPAFGGRACVGADLQAEMCNTQACEKTQLEFMSQQCARTDGQPLRSSPGGASFYHWGAAVPHSQGDALCRHMCRAIGESFIMKRGDSFLDGTRCMPSGPREDGTLSLCVSGSCRTFGCDGRMDSQQVWDRCQVCGGDNSTCSPRKGSFTAGRAREYVTFLTVTPNLTSVYIANHRPLFTHLAVRIGGRYVVAGKMSISPNTTYPSLLEDGRVEYRVALTEDRLPRLEEIRIWGPLQEDADIQVYRRYGEEYGNLTRPDITFTYFQPKPRQAWVWAAVRGPCSVSCGAGLRWVNYSCLDQARKELVETVQCQGSQQPPAWPEACVLEPCPPYWAVGDFGPCSASCGGGLRERPVRCVEAQGSLLKTLPPARCRAGAQQPAVALETCNPQPCPARWEVSEPSSCTSAGGAGLALENETCVPGADGLEAPVTEGPGSVDEKLPAPEPCVGMSCPPGWGHLDATSAGEKAPSPWGSIRTGAQAAHVWTPAAGSCSVSCGRGLMELRFLCMDSALRVPVQEELCGLASKPGSRREVCQAVPCPARWQYKLAACSVSCGRGVVRRILYCARAHGEDDGEEILLDTQCQGLPRPEPQEACSLEPCPPRWKVMSLGPCSASCGLGTARRSVACVQLDQGQDVEVDEAACAALVRPEASVPCLIADCTYRWHVGTWMECSVSCGDGIQRRRDTCLGPQAQAPVPADFCQHLPKPVTVRGCWAGPCVGQGTPSLVPHEEAAAPGRTTATPAGASLEWSQARGLLFSPAPQPRRLLPGPQENSVQSSACGRQHLEPTGTIDMRGPGQADCAVAIGRPLGEVVTLRVLESSLNCSAGDMLLLWGRLTWRKMCRKLLDMTFSSKTNTLVVRQRCGRPGGGVLLRYGSQLAPETFYRECDMQLFGPWGEIVSPSLSPATSNAGGCRLFINVAPHARIAIHALATNMGAGTEGANASYILIRDTHSLRTTAFHGQQVLYWESESSQAEMEFSEGFLKAQASLRGQYWTLQSWVPEMQDPQSWKGKEGT
The stoichiometry N is a count of units in the complex or per binding partner. On to B1, for which the “stoichiometry N” value in assay [4] is 0.004 ADAMTS13 per VWF (molar ratio).

B2: Human recombinant ADAMTS13 with the active site mutation E225Q (enzyme, UniProt Q76LX8 75-1427, looked up)
chain: AAGGILHLELLVAVGPDVFQAHQEDTERYVLTNLNIGAELLRDPSLGAQFRVHLVKMVILTEPEGAPNITANLTSSLLSVCGWSQTINPEDDTDPGHADLVLYITRFDLELPDGNRQVRGVTQLGGACSPTWSCLITEDTGFDLGVTIAHQIGHSFGLEHDGAPGSGCGPSGHVMASDGAAPRAGLAWSPCSRRQLLSLLSAGRARCVWDPPRPQPGSAGHPPDAQPGLYYSANEQCRVAFGPKAVACTFAREHLDMCQALSCHTDPLDQSSCSRLLVPLLDGTECGVEKWCSKGRCRSLVELTPIAAVHGRWSSWGPRSPCSRSCGGGVVTRRRQCNNPRPAFGGRACVGADLQAEMCNTQACEKTQLEFMSQQCARTDGQPLRSSPGGASFYHWGAAVPHSQGDALCRHMCRAIGESFIMKRGDSFLDGTRCMPSGPREDGTLSLCVSGSCRTFGCDGRMDSQQVWDRCQVCGGDNSTCSPRKGSFTAGRAREYVTFLTVTPNLTSVYIANHRPLFTHLAVRIGGRYVVAGKMSISPNTTYPSLLEDGRVEYRVALTEDRLPRLEEIRIWGPLQEDADIQVYRRYGEEYGNLTRPDITFTYFQPKPRQAWVWAAVRGPCSVSCGAGLRWVNYSCLDQARKELVETVQCQGSQQPPAWPEACVLEPCPPYWAVGDFGPCSASCGGGLRERPVRCVEAQGSLLKTLPPARCRAGAQQPAVALETCNPQPCPARWEVSEPSSCTSAGGAGLALENETCVPGADGLEAPVTEGPGSVDEKLPAPEPCVGMSCPPGWGHLDATSAGEKAPSPWGSIRTGAQAAHVWTPAAGSCSVSCGRGLMELRFLCMDSALRVPVQEELCGLASKPGSRREVCQAVPCPARWQYKLAACSVSCGRGVVRRILYCARAHGEDDGEEILLDTQCQGLPRPEPQEACSLEPCPPRWKVMSLGPCSASCGLGTARRSVACVQLDQGQDVEVDEAACAALVRPEASVPCLIADCTYRWHVGTWMECSVSCGDGIQRRRDTCLGPQAQAPVPADFCQHLPKPVTVRGCWAGPCVGQGTPSLVPHEEAAAPGRTTATPAGASLEWSQARGLLFSPAPQPRRLLPGPQENSVQSSACGRQHLEPTGTIDMRGPGQADCAVAIGRPLGEVVTLRVLESSLNCSAGDMLLLWGRLTWRKMCRKLLDMTFSSKTNTLVVRQRCGRPGGGVLLRYGSQLAPETFYRECDMQLFGPWGEIVSPSLSPATSNAGGCRLFINVAPHARIAIHALATNMGAGTEGANASYILIRDTHSLRTTAFHGQQVLYWESESSQAEMEFSEGFLKAQASLRGQYWTLQSWVPEMQDPQSWKGKEGT
In the case of B2, the Kd was above 500 nM in assay [5] and 79 nM in assay [6].
